Biological target: Biotin-GG-KQTSV
Test: micro-calorimetry (isothermal titration)

B1: wild-type PDZ (PDZ3 of PSD095) domain, Q62108 302-402 (protein, mouse, UniProt Q62108 302-402, looked up)
chain: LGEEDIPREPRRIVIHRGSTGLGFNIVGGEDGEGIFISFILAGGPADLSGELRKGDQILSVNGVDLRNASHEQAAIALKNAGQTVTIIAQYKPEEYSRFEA
Ka: 25700 M⁻¹
Kd: 39 µM

From patent US20030059827A1, “Engineered protein binding domains and methods and systems for their design and use” (priority 2001, published 2003)
